Source: patent US20250361296A1 (BIOCYTOGEN PHARMACEUTICALS BEIJING, published 2025)

T1: human SIGLEC5 on CHO-S-hSIGLEC5 cells (human, UniProt O15389 17-441)
T1 sequence: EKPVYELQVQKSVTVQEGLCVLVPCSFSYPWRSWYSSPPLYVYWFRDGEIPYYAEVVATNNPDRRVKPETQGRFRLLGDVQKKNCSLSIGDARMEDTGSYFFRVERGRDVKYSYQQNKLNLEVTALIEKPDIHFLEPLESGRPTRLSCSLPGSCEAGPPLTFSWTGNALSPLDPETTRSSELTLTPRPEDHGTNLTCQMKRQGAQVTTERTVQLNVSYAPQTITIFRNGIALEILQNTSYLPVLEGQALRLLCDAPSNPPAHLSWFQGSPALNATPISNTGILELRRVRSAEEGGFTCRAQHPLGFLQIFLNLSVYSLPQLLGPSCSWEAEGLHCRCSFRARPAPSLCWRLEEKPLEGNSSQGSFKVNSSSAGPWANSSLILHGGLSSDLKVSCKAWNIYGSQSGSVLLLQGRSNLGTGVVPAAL

T2: human SIGLEC14 on CHO-S-hSIGLEC14 cells (human, UniProt Q08ET2 17-358)
T2 sequence: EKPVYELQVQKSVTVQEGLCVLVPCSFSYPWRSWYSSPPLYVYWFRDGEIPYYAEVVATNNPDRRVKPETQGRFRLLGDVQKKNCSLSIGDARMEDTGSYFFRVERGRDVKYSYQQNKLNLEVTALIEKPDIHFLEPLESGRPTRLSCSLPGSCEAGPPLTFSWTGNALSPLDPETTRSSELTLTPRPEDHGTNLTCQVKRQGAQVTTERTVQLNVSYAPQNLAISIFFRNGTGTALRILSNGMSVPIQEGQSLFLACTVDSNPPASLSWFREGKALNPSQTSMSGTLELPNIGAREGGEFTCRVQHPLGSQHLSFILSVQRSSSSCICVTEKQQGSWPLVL

T3: hSIGLEC15 protein captured in the epitope analysis of Example 4 (human, UniProt Q6ZMC9 20-263, limits assumed)
T3 sequence: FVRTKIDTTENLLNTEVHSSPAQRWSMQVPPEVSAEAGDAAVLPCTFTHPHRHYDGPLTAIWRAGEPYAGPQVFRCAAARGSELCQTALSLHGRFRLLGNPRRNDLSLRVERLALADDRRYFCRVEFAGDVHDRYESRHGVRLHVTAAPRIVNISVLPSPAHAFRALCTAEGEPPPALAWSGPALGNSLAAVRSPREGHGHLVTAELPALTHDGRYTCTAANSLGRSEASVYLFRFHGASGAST


How the values were obtained:
[1] = target: T1, human SIGLEC5 on CHO-S-hSIGLEC5 cells; test: flow cytometry, CHO-S cells expressing the target
Protocol: (§1) CHO-S-hSIGLEC15 cells, CHO-S-mSIGLEC15 cells, CHO-S-fasSIGLEC15 cells or CHO-S-dSIGLEC15 cells were transferred to a 96-well plate at a density of 5×10⁴ cells/well respectively. Serially diluted sample anti-SIGLEC15 antibodies were added to the 96-well plate, and incubated at 4° C. for 30 min. Then, the cells were incubated with the secondary antibody anti-hIgG-Fc-Alex Flour 647 (RL1-H) (Jackson ImmunoResearch Laboratories, Inc., 109-606-170) at 4° C. in the dark for 15 minutes before flow cytometry analysis.
(§2) Another similar experiment was performed to determine whether the anti-SIGLEC15 antibodies can bind with other SIGLEC family proteins. CHO-S-hSIGLEC1 cells (expressing hSIGLEC1, SEQ ID NO: 49)), CHO-S-hSIGLEC2 cells (expressing hSIGLEC2, SEQ ID NO: 50), CHO-S-hSIGLEC4 cells (expressing hSIGLEC4, SEQ ID NO: 51), CHO-S-hSIGLEC5 cells (expressing hSIGLEC5, SEQ ID NO: 52), CHO-S-hSIGLEC6 cells (expressing hSIGLEC6, SEQ ID NO: 53), CHO-S-hSIGLEC7 cells (expressing hSIGLEC7, SEQ ID NO: 54), CHO-S-hSIGLEC8 cells (expressing hSIGLEC8, SEQ ID NO: 55), CHO-S-hSIGLEC9 cells (expressing hSIGLEC9, SEQ ID NO: 56), CHO-S-hSIGLEC10 cells (expressing hSIGLEC10, SEQ ID NO: 57), CHO-S-hSIGLEC11 cells (expressing hSIGLEC11, SEQ ID NO: 58), CHO-S-hSIGLEC12 cells (expressing hSIGLEC12, SEQ ID NO: 59), CHO-S-hSIGLEC14 cells (expressing hSIGLEC14, SEQ ID NO: 60) or CHO-S-hSIGLEC16 cells (expressing hSIGLEC16, SEQ ID NO: 61) were used.

[2] = target: T2, human SIGLEC14 on CHO-S-hSIGLEC14 cells; test: flow cytometry, CHO-S cells expressing the target
Protocol: as §1, §2

[3] = target: T3, hSIGLEC15 protein captured in the …; test: BLI pairwise binning on captured hSIGLEC15, 200 nM each antibody; competitor 10A7
Protocol: (§3) Relative positions of target protein epitope between a pair of purified anti-SIGLEC15 antibodies were analyzed by Biolayer Interferometry (BLI) using ForteBio Octet system at 30° C. A total of 4 purified antibodies were used: 5G12, 10A7, 10C9 and 23F4.
(§4) 1×HBS-EP+ buffer (10 mM 4-(2-hydroxyethyl)-1-piperazineethanesulfonic acid (HEPES), 150 mM NaCl, 3 mM ethylenediaminetetraacetic acid (EDTA) and 0.05% P20, pH7.4) diluted from HBS-EP+ buffer (10×) was used as the running buffer throughout the experiment. About 100 RU of hSIGLEC15 protein was captured at a flow rate of 10 μL/min, and 200 nM of antibody was injected at a flow rate of 30 μL/min to bind the ligand. Another antibody was injected under the same conditions to determine whether the binding of different antibodies interfered with each other. The binding time was 300 s for each antibody.
(§5) The binding value of each antibody was obtained using Data Analysis HT 12.0. To quantify the interference of one antibody binding to another, a binding ratio was calculated to compare each pair of antibodies. The binding ratio is defined as the binding value of the second antibody (analyte 2), divided by the binding value of the first antibody (analyte 1). […] In general, antibody pairs that interfere with each other have the same or overlapping epitopes.

[4] = target: T3, hSIGLEC15 protein captured in the …; test: BLI pairwise binning on captured hSIGLEC15, 200 nM each antibody; competitor 10C9
Protocol: as §3, §4, §5

[5] = target: T3, hSIGLEC15 protein captured in the …; test: BLI pairwise binning on captured hSIGLEC15, 200 nM each antibody; competitor 5G12
Protocol: as §3, §4, §5

Percentage of Positive Cells [1] [%] | binding result [1] | Percentage of Positive Cells [2] [%] | binding result [2] | binding ratio [3] | binding ratio [4] | binding ratio [5] | Binder
7 | no binding | 1.3 | no binding | 0.18 | 0.62 | 0.48 | anti-SIGLEC15 antibody 23F4 (antibody, human IgG1, V domains shown) VH: QVQLQQWGAGLLKPSETLSLTCAVYGGSFSGYFWSWIRQPPGKGLEWIGEINHSGSTNYNPSLKSRVTLSVDTSKNQFSLKLSSVTAADTAVYYCAREGDSSSWGNWFDPWGQGTLVTVSS VL: EIVLTQSPGTLSLSPGERATLSCRASQSVSSSYLAWYQQKPGQAPRFLIYGASSRATGIPDRFSGSGSGTDFTLTISRLEPEDFAVYYCQQFGNSPLTFGGGTKVEIK
0.2 | no binding | 0.2 | no binding | 0.11 | 0.11 | 0.23 | anti-SIGLEC15 antibody 10C9 (antibody, human IgG1, V domains shown) VH: QVQLVQSGAEVKKPGATVKVSCKASGYTFTNYGFSWVRQAPGQGLEWMGWINTYNDNTNYAQKFQGRVTMTTDTSTSTAYMELRSLRSDDTAVYYCARDGLWFGELPHYFDYWGQGTLVTVSS VL: DIQLTQSPLSSPVTLGQPASISCRSSQSLVNSDGETFLSWLQQRPGQPPRLLIYKISNRFSGVPDRFSGSGAGTDFTLKISRVEAEDVGVYYCMQATQFPHTFGQGTKLEIK
0.2 | no binding | 0.1 | no binding | 0.14 | 0.16 | 0.2 | anti-SIGLEC15 antibody 10A7 (antibody, human IgG1, V domains shown) VH: EVQLVQSGGGLVQPGGSLRLSCAASGFTFSNYEMNWVRQAPGKGLEWISYISNSGSTIYYADSVKGRFTISRDDAKNSLYLQMNSLRAEDTAVYYCAREDYDSSGYYWFDPWGQGTPVTVSS VL: DIQLTQSPSSVSASVGDRVTITCRASQGISSWLAWYQQKPGKAPKLLIYAASSLQSGVPSRFSGSGSGTDFTLTINSLQPEDFATYYCQQTNSFPLTFGGGTKVEIK
